Experimental data taken from publication PMC10393071 (2023).
Positions count from the first letter of the chain named. Blank lines part the entries; values can stand above or below the binder they belong to.

Key:
[1] = target: T1, BMPR-1A/BMPR-1B (aortic SMC) (Homo sapiens, UniProt P36894); assay: FITC-ligand cell membrane binding, Scatchard
T1 chain 1: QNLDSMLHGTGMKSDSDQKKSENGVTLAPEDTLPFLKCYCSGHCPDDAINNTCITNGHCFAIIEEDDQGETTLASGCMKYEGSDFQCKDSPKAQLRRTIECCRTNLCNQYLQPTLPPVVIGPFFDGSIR
T1 chain 2: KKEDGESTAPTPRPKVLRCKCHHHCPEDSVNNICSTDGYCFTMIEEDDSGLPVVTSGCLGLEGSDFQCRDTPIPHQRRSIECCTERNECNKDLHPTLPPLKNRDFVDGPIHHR

BMPR-1A = target: T2, BMPR-1A (Mus musculus, UniProt P36895); assay: FITC-ligand binding to transfected 293T, Scatchard
T2 chain: T1 chain 1 with S16L, S21P, A74T

BMPR-1B = target: T3, BMPR-1B (Mus musculus, UniProt P36898); assay: FITC-ligand binding to transfected 293T, Scatchard
T3 chain: T1 chain 2 with V16I, L51M, N102D, R113K

BMPR-2 = target: T4, BMPR-2 (Mus musculus, UniProt O35607); assay: FITC-ligand binding to transfected 293T, Scatchard
T4 chain: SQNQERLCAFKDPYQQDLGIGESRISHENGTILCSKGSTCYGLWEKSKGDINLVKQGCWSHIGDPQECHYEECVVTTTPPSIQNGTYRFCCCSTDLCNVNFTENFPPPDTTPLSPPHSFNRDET

BMPR-1A/BMPR-1B = target: T5, BMPR-1A/BMPR-1B (Mus musculus, UniProt P36895); assay: FITC-ligand binding to transfected 293T, Scatchard
T5 chain 1: T1 chain 1 with S16L, S21P, A74T
T5 chain 2: T1 chain 2 with V16I, L51M, N102D, R113K

[2] = target: T6, BMPR-1B (aortic SMC, BMPR-1A siRNA) (Mus musculus, UniProt P36898); assay: FITC-ligand cell membrane binding, Scatchard
T6 chain: T1 chain 2 with V16I, L51M, N102D, R113K

[3] = target: T7, BMPR-1A/BMPR-1B (aortic SMC) (Mus musculus, UniProt P36895); assay: FITC-ligand cell membrane binding, Scatchard
T7 chain 1: T1 chain 1 with S16L, S21P, A74T
T7 chain 2: T1 chain 2 with V16I, L51M, N102D, R113K

[4] = target: T8, BMPR-1A (aortic SMC, BMPR-1B siRNA) (Mus musculus, UniProt P36895); assay: FITC-ligand cell membrane binding, Scatchard
T8 chain: T1 chain 1 with S16L, S21P, A74T

Kd [1]: 14.9 nM
B1: ECP (protein)
chain: RPPQFTRAQWFAIQHISLNPPRCTIAMRAINNYRWRCKNQNTFLRTTFANVVNVCGNQSIRCPHNRTLNNCHRSRFRVPLLHCDLINPGAQNISNCTYADRPGRRFYVVACDNRDPRDSPRYPVVPVHLDTTI

Kd [1]: 11.6 nM
B2: EDN (protein)
chain: KPPQFTWAQWFETQHINMTSQQCTNAMQVINNYQRRCKNQNTFLLTTFANVVNVCGNPNMTCPSNKTRKNCHHSGSQVPLIHCNLTTPSPQNISNCRYAQTPANMFYIVACDNRDQRRDPPQYPVVPVHLDRII

Kd (BMPR-1A): 10.6 nM
Kd (BMPR-1B): 9.45 nM
Kd (BMPR-2): 6.09 nM
Kd (BMPR-1A/BMPR-1B): 15.5 nM
Kd [2]: 11.1 nM
Kd [3]: 15.8 nM
Kd [4]: 9.14 nM
B3: mEar1 (protein)
chain: LGQTPSQKFAIQHINNNTNLQCNVEMMRINRARRTCKGLNTFLHTSFANAVGVCGNPSGLCSDKRSQNCHNSSSRVHITVCNITSRATNYTQCRYQSRRSLEYYTVACDPRTPQDSPMYPVVPVHLDGTF
